# Measured values as given in PMC8318374.
# Target: GFP-CC-tet-KLC1E^CTD (de novo-designed coiled-coil tetramer between GFP and KLC1E^CTD) (mouse)
# Assay: cross-linking
substance,measurement,value
GFP-CC-tet-KLC1E^CTD (de novo-designed coiled-coil tetramer between GFP and KLC1E^CTD),stoichiometry N,4
